Laboratory results reported in patent publication US20150344570A1 (published 2015).

B1: GpH7-B3 variant A330_05P/GpL16-k0 (antibody, human IgG1, kappa)
heavy: not shown
light: DIVMTQSPLSLPVTPGEPASISCQASESLVHSNRNTYLHWYLQKPGQSPQLLIYKVSNRFSGVPDRFSGSGSGTDFTLKISRVEAEDVGVYYCSQNTHVPPTFGQGTKVEIERTVAAPSVFIFPPSDEQLKSGTASVVCLLNNFYPREAKVQWKVDNALQSGNSQESVTEQDSKDSTYSLSSTLTLSKADYEKHKVYACEVTHQGLSSPVTKSFNRGEC
notes: both H chains altered; also called Ho Ab A330_05P
B2: GpH7-B3 variant E333_20W/GpL16-k0 (antibody, human IgG1, kappa)
heavy: not shown
light: B1 light
notes: both H chains altered; also called Ho Ab E333_20W
B3: GpH7-B3 variant L234_15Y/GpL16-k0 (antibody, human IgG1, kappa)
heavy: not shown
light: B1 light
notes: both H chains altered; also called Ho Ab L234_15Y
B4: GpH7-B3 variant E333_13S/GpL16-k0 (antibody, human IgG1, kappa)
heavy: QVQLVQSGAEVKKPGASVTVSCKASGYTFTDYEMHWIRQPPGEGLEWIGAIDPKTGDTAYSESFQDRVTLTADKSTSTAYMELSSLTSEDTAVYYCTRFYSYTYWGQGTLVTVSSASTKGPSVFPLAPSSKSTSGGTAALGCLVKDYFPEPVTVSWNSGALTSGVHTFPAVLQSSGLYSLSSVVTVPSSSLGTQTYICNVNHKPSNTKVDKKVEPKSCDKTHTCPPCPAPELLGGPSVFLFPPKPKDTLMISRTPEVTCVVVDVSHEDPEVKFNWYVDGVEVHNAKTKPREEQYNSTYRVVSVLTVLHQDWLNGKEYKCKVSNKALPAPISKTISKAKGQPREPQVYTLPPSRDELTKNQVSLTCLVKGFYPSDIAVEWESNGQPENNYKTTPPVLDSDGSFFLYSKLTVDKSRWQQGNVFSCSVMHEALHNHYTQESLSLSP
light: B1 light
notes: both H chains altered; also called Ho Ab E333_13S
B5: GpH7-B3 variant A330_07I/GpL16-k0 (antibody, human IgG1, kappa)
heavy: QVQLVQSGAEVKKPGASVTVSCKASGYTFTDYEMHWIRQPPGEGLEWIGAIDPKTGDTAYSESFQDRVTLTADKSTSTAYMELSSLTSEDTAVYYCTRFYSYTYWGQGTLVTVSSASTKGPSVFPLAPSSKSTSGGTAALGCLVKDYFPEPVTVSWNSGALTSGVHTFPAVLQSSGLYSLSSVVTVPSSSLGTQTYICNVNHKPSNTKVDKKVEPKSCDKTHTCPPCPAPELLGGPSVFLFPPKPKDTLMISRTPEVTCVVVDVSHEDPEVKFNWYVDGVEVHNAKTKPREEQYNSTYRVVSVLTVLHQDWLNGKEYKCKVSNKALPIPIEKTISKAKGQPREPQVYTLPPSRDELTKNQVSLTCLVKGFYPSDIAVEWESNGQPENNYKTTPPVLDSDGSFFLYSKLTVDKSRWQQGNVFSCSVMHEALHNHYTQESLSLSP
light: B1 light
notes: both H chains altered; also called Ho Ab A330_07I
B6: GpH7-B3 variant L234_20W/GpL16-k0 (antibody, human IgG1, kappa)
heavy: not shown
light: B1 light
notes: both H chains altered; also called Ho Ab L234_20W
B7: GpH7-B3 variant G236_20W/GpL16-k0 (antibody, human IgG1, kappa)
heavy: not shown
light: B1 light
notes: both H chains altered; also called Ho Ab G236_20W
B8: GpH7-B3 variant P238_10E/GpL16-k0 (antibody, human IgG1, kappa)
heavy: not shown
light: B1 light
notes: both H chains altered; also called Ho Ab P238_10E
B9: GpH7-B3 variant I332_06M/GpL16-k0 (antibody, human IgG1, kappa)
heavy: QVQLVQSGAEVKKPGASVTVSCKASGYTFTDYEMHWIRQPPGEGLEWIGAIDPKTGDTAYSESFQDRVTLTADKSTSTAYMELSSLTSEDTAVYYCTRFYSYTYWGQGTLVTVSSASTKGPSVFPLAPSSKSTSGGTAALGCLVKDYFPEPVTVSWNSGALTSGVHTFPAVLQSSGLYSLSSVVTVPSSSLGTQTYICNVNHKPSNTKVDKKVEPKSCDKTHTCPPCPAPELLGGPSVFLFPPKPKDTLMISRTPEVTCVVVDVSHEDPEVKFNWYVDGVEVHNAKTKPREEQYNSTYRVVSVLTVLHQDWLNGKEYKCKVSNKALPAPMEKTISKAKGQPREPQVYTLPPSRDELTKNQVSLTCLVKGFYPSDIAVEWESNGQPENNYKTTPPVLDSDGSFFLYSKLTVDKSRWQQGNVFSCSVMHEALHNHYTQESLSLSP
light: B1 light
notes: both H chains altered; also called Ho Ab I332_06M
B10: GpH7-B3 variant G236_15Y/GpL16-k0 (antibody, human IgG1, kappa)
heavy: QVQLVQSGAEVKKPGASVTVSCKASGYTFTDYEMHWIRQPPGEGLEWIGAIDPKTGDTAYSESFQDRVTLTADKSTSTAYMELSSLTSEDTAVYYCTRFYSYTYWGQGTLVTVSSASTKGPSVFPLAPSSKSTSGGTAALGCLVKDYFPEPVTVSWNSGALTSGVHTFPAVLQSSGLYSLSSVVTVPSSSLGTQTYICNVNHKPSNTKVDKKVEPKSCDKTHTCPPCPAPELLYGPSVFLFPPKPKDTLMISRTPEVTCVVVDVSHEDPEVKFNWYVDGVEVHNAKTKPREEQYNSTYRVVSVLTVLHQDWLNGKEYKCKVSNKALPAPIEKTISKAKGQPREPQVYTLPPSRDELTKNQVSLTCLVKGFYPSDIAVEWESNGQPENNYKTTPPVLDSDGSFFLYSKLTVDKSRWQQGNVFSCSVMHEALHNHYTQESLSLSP
light: B1 light
notes: both H chains altered; also called Ho Ab G236_15Y
B11: GpH7-B3 variant S337_04F/GpL16-k0 (antibody, human IgG1, kappa)
heavy: not shown
light: B1 light
notes: both H chains altered; also called Ho Ab S337_04F
B12: GpH7-B3 variant S337_14T/GpL16-k0 (antibody, human IgG1, kappa)
heavy: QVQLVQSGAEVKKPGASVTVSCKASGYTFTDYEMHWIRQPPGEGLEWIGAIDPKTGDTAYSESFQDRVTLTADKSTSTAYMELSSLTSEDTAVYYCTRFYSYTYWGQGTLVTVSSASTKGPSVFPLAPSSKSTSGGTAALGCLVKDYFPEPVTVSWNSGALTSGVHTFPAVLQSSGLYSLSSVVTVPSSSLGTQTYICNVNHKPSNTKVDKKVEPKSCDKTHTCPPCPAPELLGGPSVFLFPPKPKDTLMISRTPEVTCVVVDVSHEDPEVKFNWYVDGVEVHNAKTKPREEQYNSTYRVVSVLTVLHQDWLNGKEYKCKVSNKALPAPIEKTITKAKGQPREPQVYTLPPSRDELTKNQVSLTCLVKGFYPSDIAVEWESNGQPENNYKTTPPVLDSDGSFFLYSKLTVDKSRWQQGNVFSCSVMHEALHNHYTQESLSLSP
light: B1 light
notes: both H chains altered; also called Ho Ab S337_14T
B13: GpH7-B3 variant P271_01G/GpL16-k0 (antibody, human IgG1, kappa)
heavy: not shown
light: B1 light
notes: both H chains altered; also called Ho Ab P271_01G
B14: GpH7-B3 variant L234_04F/GpL16-k0 (antibody, human IgG1, kappa)
heavy: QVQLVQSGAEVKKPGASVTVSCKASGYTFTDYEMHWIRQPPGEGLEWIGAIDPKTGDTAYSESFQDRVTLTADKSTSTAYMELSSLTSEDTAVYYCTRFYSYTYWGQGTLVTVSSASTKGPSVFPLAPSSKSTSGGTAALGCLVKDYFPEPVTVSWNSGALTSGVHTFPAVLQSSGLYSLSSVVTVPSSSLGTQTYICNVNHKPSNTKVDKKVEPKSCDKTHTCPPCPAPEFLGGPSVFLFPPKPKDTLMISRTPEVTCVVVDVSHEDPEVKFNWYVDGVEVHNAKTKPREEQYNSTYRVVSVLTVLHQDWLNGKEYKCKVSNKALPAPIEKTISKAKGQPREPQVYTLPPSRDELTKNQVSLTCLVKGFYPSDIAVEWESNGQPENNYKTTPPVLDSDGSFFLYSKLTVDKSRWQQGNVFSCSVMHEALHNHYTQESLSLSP
light: B1 light
notes: both H chains altered; also called Ho Ab L234_04F
B15: GpH7-B3 variant E333_03V/GpL16-k0 (antibody, human IgG1, kappa)
heavy: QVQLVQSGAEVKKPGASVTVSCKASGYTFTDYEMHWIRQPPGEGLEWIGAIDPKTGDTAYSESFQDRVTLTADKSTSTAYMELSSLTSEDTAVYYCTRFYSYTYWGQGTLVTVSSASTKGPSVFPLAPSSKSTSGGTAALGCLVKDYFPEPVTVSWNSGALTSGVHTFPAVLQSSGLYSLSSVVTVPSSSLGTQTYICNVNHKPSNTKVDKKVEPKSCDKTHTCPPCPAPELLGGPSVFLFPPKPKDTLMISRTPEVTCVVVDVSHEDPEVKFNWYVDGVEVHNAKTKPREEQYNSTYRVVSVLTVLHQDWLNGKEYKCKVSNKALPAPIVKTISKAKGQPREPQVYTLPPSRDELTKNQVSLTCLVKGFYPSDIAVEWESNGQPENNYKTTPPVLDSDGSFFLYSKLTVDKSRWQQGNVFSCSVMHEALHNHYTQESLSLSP
light: B1 light
notes: both H chains altered; also called Ho Ab E333_03V
B16: GpH7-B3 variant H268_18N/GpL16-k0 (antibody, human IgG1, kappa)
heavy: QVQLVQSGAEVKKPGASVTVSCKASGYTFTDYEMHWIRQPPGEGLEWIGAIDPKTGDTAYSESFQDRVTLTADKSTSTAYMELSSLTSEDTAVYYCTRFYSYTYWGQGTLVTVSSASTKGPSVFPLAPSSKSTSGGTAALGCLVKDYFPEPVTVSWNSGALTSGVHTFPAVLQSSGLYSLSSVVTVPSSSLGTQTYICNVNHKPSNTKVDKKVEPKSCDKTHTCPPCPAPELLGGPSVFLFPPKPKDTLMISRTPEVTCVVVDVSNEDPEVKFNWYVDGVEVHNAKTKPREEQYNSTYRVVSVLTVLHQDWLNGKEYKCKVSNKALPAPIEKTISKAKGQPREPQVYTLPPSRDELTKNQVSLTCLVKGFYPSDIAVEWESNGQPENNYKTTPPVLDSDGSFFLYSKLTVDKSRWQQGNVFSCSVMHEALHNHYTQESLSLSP
light: B1 light
notes: both H chains altered; also called Ho Ab H268_18N
B17: GpH7-B3 variant L234_09D/GpL16-k0 (antibody, human IgG1, kappa)
heavy: not shown
light: B1 light
notes: both H chains altered; also called Ho Ab L234_09D
B18: GpH7-B3 variant S324_02A/GpL16-k0 (antibody, human IgG1, kappa)
heavy: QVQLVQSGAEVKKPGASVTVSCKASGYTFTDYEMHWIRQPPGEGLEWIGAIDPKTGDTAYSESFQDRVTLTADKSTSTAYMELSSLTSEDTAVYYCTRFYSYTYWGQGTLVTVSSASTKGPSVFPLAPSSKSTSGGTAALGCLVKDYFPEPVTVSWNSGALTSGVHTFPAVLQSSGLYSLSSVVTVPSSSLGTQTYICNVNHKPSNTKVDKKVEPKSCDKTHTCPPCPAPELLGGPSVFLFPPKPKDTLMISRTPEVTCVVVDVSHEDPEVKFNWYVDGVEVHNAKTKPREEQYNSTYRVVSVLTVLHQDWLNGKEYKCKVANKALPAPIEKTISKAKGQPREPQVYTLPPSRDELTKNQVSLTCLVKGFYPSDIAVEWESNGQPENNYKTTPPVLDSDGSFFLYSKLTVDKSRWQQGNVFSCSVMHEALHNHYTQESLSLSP
light: B1 light
notes: both H chains altered; also called Ho Ab S324_02A
B19: GpH7-B3 variant P238_09D/GpL16-k0 (antibody, human IgG1, kappa)
heavy: not shown
light: B1 light
notes: both H chains altered; also called Ho Ab P238_09D
B20: GpH7-B3 variant L234_07I/GpL16-k0 (antibody, human IgG1, kappa)
heavy: not shown
light: B1 light
notes: both H chains altered; also called Ho Ab L234_07I
B21: GpH7-B3 variant E333_02A/GpL16-k0 (antibody, human IgG1, kappa)
heavy: not shown
light: B1 light
notes: both H chains altered; also called Ho Ab E333_02A
B22: GpH7-B3 variant I336_08L/GpL16-k0 (antibody, human IgG1, kappa)
heavy: not shown
light: B1 light
notes: both H chains altered; also called Ho Ab I336_08L
B23: GpH7-B3 variant E333_04F/GpL16-k0 (antibody, human IgG1, kappa)
heavy: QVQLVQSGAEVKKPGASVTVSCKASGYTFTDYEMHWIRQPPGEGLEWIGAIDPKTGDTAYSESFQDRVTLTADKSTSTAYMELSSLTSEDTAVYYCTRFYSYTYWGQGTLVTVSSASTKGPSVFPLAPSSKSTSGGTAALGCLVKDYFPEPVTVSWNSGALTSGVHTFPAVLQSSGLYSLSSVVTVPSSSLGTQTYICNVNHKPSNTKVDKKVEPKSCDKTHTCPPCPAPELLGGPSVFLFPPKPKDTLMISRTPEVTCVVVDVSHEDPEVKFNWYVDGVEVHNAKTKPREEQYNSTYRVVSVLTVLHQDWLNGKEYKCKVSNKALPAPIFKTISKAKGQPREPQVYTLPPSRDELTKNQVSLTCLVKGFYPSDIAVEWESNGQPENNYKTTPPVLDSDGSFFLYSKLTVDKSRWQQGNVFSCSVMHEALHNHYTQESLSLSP
light: B1 light
notes: both H chains altered; also called Ho Ab E333_04F
B24: GpH7-A5/GpH7-B3 variant S337_09D/GpL16-k0 (antibody, human IgG1, kappa)
heavy 1: not shown
heavy 2: not shown
light: B1 light
notes: heterodimerized IgG1, mutation in one H chain only; also called He Ab
B25: GpH7-A5/GpH7-B3 variant Y300_08L/GpL16-k0 (antibody, human IgG1, kappa)
heavy 1: not shown
heavy 2: not shown
light: B1 light
notes: as for B24
B26: GpH7-A5/GpH7-B3 variant S337_04F/GpL16-k0 (antibody, human IgG1, kappa)
heavy 1: not shown
heavy 2: not shown
light: B1 light
notes: as for B24
B27: GpH7-A5/GpH7-B3 variant S337_19Q/GpL16-k0 (antibody, human IgG1, kappa)
heavy 1: not shown
heavy 2: not shown
light: B1 light
notes: as for B24
B28: GpH7-A5/GpH7-B3 variant Y296_16H/GpL16-k0 (antibody, human IgG1, kappa)
heavy 1: not shown
heavy 2: not shown
light: B1 light
notes: as for B24
B29: GpH7-A5/GpH7-B3 variant Y300_11K/GpL16-k0 (antibody, human IgG1, kappa)
heavy 1: not shown
heavy 2: not shown
light: B1 light
notes: as for B24
B30: GpH7-A5/GpH7-B3 variant Y296_11K/GpL16-k0 (antibody, human IgG1, kappa)
heavy 1: not shown
heavy 2: not shown
light: B1 light
notes: as for B24
B31: GpH7-A5/GpH7-B3 variant T335_12R/GpL16-k0 (antibody, human IgG1, kappa)
heavy 1: not shown
heavy 2: not shown
light: B1 light
notes: as for B24
B32: GpH7-A5/GpH7-B3 variant T335_15Y/GpL16-k0 (antibody, human IgG1, kappa)
heavy 1: not shown
heavy 2: not shown
light: B1 light
notes: as for B24
B33: GpH7-A5/GpH7-B3 variant T335_07I/GpL16-k0 (antibody, human IgG1, kappa)
heavy 1: not shown
heavy 2: not shown
light: B1 light
notes: as for B24
B34: GpH7-A5/GpH7-B3 variant Y300_20W/GpL16-k0 (antibody, human IgG1, kappa)
heavy 1: not shown
heavy 2: not shown
light: B1 light
notes: as for B24
B35: GpH7-A5/GpH7-B3 variant S337_07I/GpL16-k0 (antibody, human IgG1, kappa)
heavy 1: not shown
heavy 2: not shown
light: B1 light
notes: as for B24
B36: GpH7-A5/GpH7-B3 variant Y300_02A/GpL16-k0 (antibody, human IgG1, kappa)
heavy 1: not shown
heavy 2: not shown
light: B1 light
notes: as for B24
B37: GpH7-A5/GpH7-B3 variant S337_08L/GpL16-k0 (antibody, human IgG1, kappa)
heavy 1: not shown
heavy 2: not shown
light: B1 light
notes: as for B24
B38: GpH7-A5/GpH7-B3 variant T335_20W/GpL16-k0 (antibody, human IgG1, kappa)
heavy 1: not shown
heavy 2: not shown
light: B1 light
notes: as for B24
B39: GpH7-A5/GpH7-B3 variant Y296_20W/GpL16-k0 (antibody, human IgG1, kappa)
heavy 1: not shown
heavy 2: not shown
light: B1 light
notes: as for B24
B40: GpH7-A5/GpH7-B3 variant T335_11K/GpL16-k0 (antibody, human IgG1, kappa)
heavy 1: not shown
heavy 2: not shown
light: B1 light
notes: as for B24
B41: GpH7-A5/GpH7-B3 variant S337_10E/GpL16-k0 (antibody, human IgG1, kappa)
heavy 1: not shown
heavy 2: not shown
light: B1 light
notes: as for B24
B42: GpH7-A5/GpH7-B3 variant Y300_03V/GpL16-k0 (antibody, human IgG1, kappa)
heavy 1: not shown
heavy 2: not shown
light: B1 light
notes: as for B24
B43: GpH7-A5/GpH7-B3 variant T335_05P/GpL16-k0 (antibody, human IgG1, kappa)
heavy 1: not shown
heavy 2: not shown
light: B1 light
notes: as for B24
B44: GpH7-A5/GpH7-B3 variant S337_20W/GpL16-k0 (antibody, human IgG1, kappa)
heavy 1: not shown
heavy 2: not shown
light: B1 light
notes: as for B24
B45: GpH7-A5/GpH7-B3 variant T335_09D/GpL16-k0 (antibody, human IgG1, kappa)
heavy 1: not shown
heavy 2: not shown
light: B1 light
notes: as for B24
B46: GpH7-A5/GpH7-B3 variant T335_10E/GpL16-k0 (antibody, human IgG1, kappa)
heavy 1: not shown
heavy 2: not shown
light: B1 light
notes: as for B24
B47: GpH7-A5/GpH7-B3 variant T335_18N/GpL16-k0 (antibody, human IgG1, kappa)
heavy 1: not shown
heavy 2: not shown
light: B1 light
notes: as for B24
B48: GpH7-A5/GpH7-B3 variant Y300_14T/GpL16-k0 (antibody, human IgG1, kappa)
heavy 1: not shown
heavy 2: not shown
light: B1 light
notes: as for B24
B49: GpH7-A5/GpH7-B3 variant T335_16H/GpL16-k0 (antibody, human IgG1, kappa)
heavy 1: not shown
heavy 2: not shown
light: B1 light
notes: as for B24
B50: GpH7-A5/GpH7-B3 variant Y296_06M/GpL16-k0 (antibody, human IgG1, kappa)
heavy 1: not shown
heavy 2: not shown
light: B1 light
notes: as for B24
B51: GpH7-A5/GpH7-B3 variant Y300_06M/GpL16-k0 (antibody, human IgG1, kappa)
heavy 1: not shown
heavy 2: not shown
light: B1 light
notes: as for B24
B52: GpH7-A5/GpH7-B3 variant T335_08L/GpL16-k0 (antibody, human IgG1, kappa)
heavy 1: not shown
heavy 2: not shown
light: B1 light
notes: as for B24
B53: GpH7-A5/GpH7-B3 variant S337_06M/GpL16-k0 (antibody, human IgG1, kappa)
heavy 1: not shown
heavy 2: not shown
light: B1 light
notes: as for B24
B54: GpH7-A5/GpH7-B3 variant T335_19Q/GpL16-k0 (antibody, human IgG1, kappa)
heavy 1: not shown
heavy 2: not shown
light: B1 light
notes: as for B24
B55: GpH7-A5/GpH7-B3 variant Y300_19Q/GpL16-k0 (antibody, human IgG1, kappa)
heavy 1: not shown
heavy 2: not shown
light: B1 light
notes: as for B24
B56: GpH7-A5/GpH7-B3 variant Y300_13S/GpL16-k0 (antibody, human IgG1, kappa)
heavy 1: not shown
heavy 2: not shown
light: B1 light
notes: as for B24
B57: GpH7-A5/GpH7-B3 variant T335_06M/GpL16-k0 (antibody, human IgG1, kappa)
heavy 1: not shown
heavy 2: not shown
light: B1 light
notes: as for B24
B58: GpH7-A5/GpH7-B3 variant Y296_12R/GpL16-k0 (antibody, human IgG1, kappa)
heavy 1: not shown
heavy 2: not shown
light: B1 light
notes: as for B24
B59: GpH7-A5/GpH7-B3 variant S337_15Y/GpL16-k0 (antibody, human IgG1, kappa)
heavy 1: not shown
heavy 2: not shown
light: B1 light
notes: as for B24

target: FcγRIIIa extracellular domain with C-terminal His tag (human, UniProt P08637 17-208); experiment: SPR (Biacore), both H chains altered; HoCon Ab GpH7-B3/GpL16-k0 = 100
Sequence (P08637 17-208): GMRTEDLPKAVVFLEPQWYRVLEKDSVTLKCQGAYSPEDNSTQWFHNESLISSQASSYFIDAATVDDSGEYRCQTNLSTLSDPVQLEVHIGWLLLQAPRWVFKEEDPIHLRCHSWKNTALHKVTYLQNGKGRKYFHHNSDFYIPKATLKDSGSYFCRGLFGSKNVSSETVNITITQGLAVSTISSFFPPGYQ

| Ho/Con_3a [%] | Binder |
| --- | --- |
| 56.6 | B1 |
| 90.9 | B2 |
| 64.7 | B3 |
| 95.1 | B4 |
| 93 | B5 |
| 37.1 | B6 |
| 58.3 | B7 |
| 0.8 | B8 |
| 95.4 | B9 |
| 41.6 | B10 |
| 95.6 | B11 |
| 97.2 | B12 |
| 88 | B13 |
| 49.9 | B14 |
| 86.5 | B15 |
| 90.3 | B16 |
| 52.8 | B17 |
| 99.8 | B18 |
| -0.1 | B19 |
| 98.2 | B20 |
| 93.3 | B21 |
| 95.8 | B22 |
| 87.1 | B23 |

target: T1, FcγRIa (human, UniProt P12314 16-292); experiment: SPR (Biacore), captured antibody, FcγRIa analyte; relative to GpH7-A5/GpH7-B3/GpL16-k0
T1 construct: extracellular domain; soluble His-tagged extracellular domain expressed in FreeStyle293 cells, used as analyte in Biacore; also called FcgRI; CD64
T1 sequence (P12314 16-292): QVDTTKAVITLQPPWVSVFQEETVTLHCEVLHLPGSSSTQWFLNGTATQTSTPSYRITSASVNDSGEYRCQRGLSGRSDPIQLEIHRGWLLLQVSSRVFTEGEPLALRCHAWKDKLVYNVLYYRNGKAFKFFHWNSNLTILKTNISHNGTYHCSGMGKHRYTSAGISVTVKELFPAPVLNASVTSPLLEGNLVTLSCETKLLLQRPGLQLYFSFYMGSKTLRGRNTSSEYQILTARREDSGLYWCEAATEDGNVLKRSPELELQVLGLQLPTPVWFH

| He/Con_1a | Binder |
| --- | --- |
| 106 relative, control = 100 | B24 |
| 113 relative, control = 100 | B25 |
| 106 relative, control = 100 | B26 |
| 105 relative, control = 100 | B27 |
| 106 relative, control = 100 | B28 |
| 107 relative, control = 100 | B29 |
| 105 relative, control = 100 | B30 |
| 113 relative, control = 100 | B31 |
| 107 relative, control = 100 | B32 |
| 109 relative, control = 100 | B33 |
| 112 relative, control = 100 | B34 |
| 105 relative, control = 100 | B35 |
| 112 relative, control = 100 | B36 |
| 105 relative, control = 100 | B37 |
| 106 relative, control = 100 | B38 |
| 111 relative, control = 100 | B39 |
| 111 relative, control = 100 | B40 |
| 106 relative, control = 100 | B41 |

| He/Con_1a | Binder |
| --- | --- |
| 117 relative, control = 100 | B42 |
| 106 relative, control = 100 | B43 |
| 105 relative, control = 100 | B44 |
| 108 relative, control = 100 | B45 |
| 109 relative, control = 100 | B46 |
| 106 relative, control = 100 | B47 |
| 112 relative, control = 100 | B48 |
| 106 relative, control = 100 | B49 |
| 104 relative, control = 100 | B50 |
| 112 relative, control = 100 | B51 |
| 115 relative, control = 100 | B52 |
| 107 relative, control = 100 | B53 |
| 105 relative, control = 100 | B54 |
| 112 relative, control = 100 | B55 |
| 111 relative, control = 100 | B56 |
| 107 relative, control = 100 | B57 |
| 106 relative, control = 100 | B58 |
| 104 relative, control = 100 | B59 |
